# Entries after “also recorded” stand apart in the source; their conditions may differ.
# Assays:
# [1] = Distribution and radioautography of ^55Fe after ^55Fe:Sid:NGAL injection; type: in vivo, mice; settings: non-protein bound ^55Fe citrate
# [2] = tested on: mouse model of ATN or ischemia/reperfusion injury; assay: Mouse model of ATN (30 min clamp, contralateral nephrectomy): plasma creatinine; type: in vivo, mice; settings: mice, 30 minutes of ischemia, 10 μg protein or single dose, 15 min prior to ischemia
# Description: Male C57BL/6 mice (20-25 gr; Charles River) were anesthetized with intraperitoneal pentobarbital (50 mg/kg) and placed on a heating pad under a warming light to maintain 37© core body temperature. Kidneys were exposed through an abdominal section and the right kidney was either removed or its vascular pedicle and ureter ligated. The vascular pedicle of the left kidney or both kidneys was clamped by a microaneurysm clip (Kent Scientific) for 30 minutes after right nephrectomy. This period of ischemia generated reproducible renal injury but minimized mortality. During the procedure, PBS (0.5 ml) was used to dampen the peritoneum. The animal was closed with 5-0 Nylon. Saline, NGAL, retinol-loaded retinol binding protein (RBP), enterochelin, or desferroxamine mesylate (DFO) were injected into the peritoneum or subcutaneously 15 min. prior to ischemia or 1-2 hr after reperfusion.
# After 6 or 24 hr of reperfusion, heparinized plasma, urine and kidney samples were obtained to measure NGAL (polyclonal 1:500), Heme oxygenase-1 (Stressgen, 1:2000), E-cadherin (BD Transduction Labs, 1:2000), N-cadherin (BD Transduction Labs, 1:3000) and GAPDH (Chemicon International, 1:3000) using immunoblots. Plasma was also used for creatinine and blood urea nitrogen colorimetric assays. Sagittal sections of the kidney were fixed in 4% formalin, or were snap frozen for mRNA and protein analysis. Paraffin-embedded sections (5 μm) were stained with hematoxylin-eosin or by an in situ kit (Fluorescein-TUNEL, Roche) for apoptotic nuclei or for total nuclei (Toprol, Molecular Probes). For cell proliferation analysis, BrdU was injected into the peritoneum 1 hour before sacrifice, and cryostat sections were stained with anti-BrdU (Roche) according to the manufacturer.
# NGAL = NGAL (Homo sapiens, UniProt P80188); settings: read-out: affinity of siderophore binding to NGAL (calyx); cited from earlier work
# [3] = NGAL trafficking after intraperitoneal or subcutaneous injection; type: in vivo, mice
# Source text: Recombinant human and mouse GST-NGAL were expressed in BL21 or XL1-Blue strains of E. coli (Stratagene) with additional ferric sulfate (50 Micro Molar, Sigma-Aldrich Co.). NGAL was isolated using Glutathione Sepharose 4B beads (Amersham Biosciences), eluted by thrombin cleavage (Sigma-Aldrich Co.; St. Louis, Mo.) and then further purified by gel filtration (Superdex75, SMART system, Amersham Biosciences) and examined by Coomassie gels (Biorad). BL-21 derived NGAL was loaded with iron free or iron saturated enterochelin, a siderophore (EMC Microcollections) using a 5 fold molar excess. Unbound siderophore (0.7 KD) was removed by washing (Microcon YM-10) with PBS. To produce ^55Fe or gallium (Ga) loaded NGAL we incubated the iron-free enterochelin NGAL complex with equimolar ^55Fe (18mCi) or Ga in NaCl (150 mM) Hepes (20 mM; pH 7.4) and the complex was washed 3 times (10K filter). Iodobeads (Pierce) were used to label NGAL with ^125I and unincorporated ^125I was removed by gel filtration (PD-10 column) followed by extensive dialysis (7 kDa cut off membrane, Pierce) against PBS. Alexa-568 and fluorescein isothiocyanate (Molecular Probes) was coupled to NGAL, according to the manufacturer, and then extensively dialyzed. Protein concentration was determined by Coomassie gels in comparison with bovine serum albumin standard.
# To detect delivery of NGAL to the kidney rNGAL (10 or 100 μg), Alexa 568-NGAL (100 μg), ^125I-NGAL ([…], 2×10^6 cpm), or ^55Fe loaded enterochelin-NGAL (10 μg, 1×10^6 cpm) was injected into the peritoneum and blood, urine, kidney and liver samples were obtained. NGAL was detected by immunoblot. Alexa-568 NGAL was detected by confocal microscopy (LSM Meta Detector) and NGAL mediated iron trafficking was detected by scintillation counter and by light microscopic radioautography of Epon embedded kidneys. Slides were exposed to emulsion (Polyscience) for 1 week and then developed with Microdol and counterstained with Toluidine blue. To detect lysosomes in the proximal tubule, mice were injected with Fluorescein Dextran (46 kD; 0.5 mg; Sigma) 24 hours before Alexa 568 NGAL injections. LAMP1 (Santa Cruz) was detected in cryostat sections of 4% paraformaldehyde fixed kidneys.
# [4] = Cofactor-dependent ^55Fe binding to NGAL (10 kDa filter retention); settings: in buffer, washed on 10 kDa filter
# Description: The urine fraction was obtained by passing fresh urine sequentially through 10 kDa and 3 kDa membranes (YM-10 and YM-3, Amicon). The mixture was then washed three times on 10 kDa membrane (YM-10, Amicon). Iron-free enterochelin-loaded NGAL (rather than NGAL without siderophore) served as a positive control for iron capture. Ferric citrate (1 mM) or iron-loaded enterochelin (Sid:Fe, 50 μM) were used as competitors of ^55Fe binding.
# [5] = previously reported; cited from earlier work
molecule,measurement,setting,value
O=C([O-])CC(O)(CC(=O)[O-])C(=O)[O-].[Fe+3] [^55Fe citrate],iron recovered in the kidney,[1],1.5%
"O=C(N[C@H]1COC(=O)[C@@H](NC(=O)c2cccc(O)c2O)COC(=O)[C@@H](NC(=O)c2cccc(O)c2O)COC1=O)c1cccc(O)c1O [Sid, enterochelin, reference compound]","protection against ATN (creatinine, FIG. 17A)",[2],failed to protect against ATN; also recorded: ineffective
same,Kd,NGAL,400 pM
"Alexa-568 NGAL: NGAL coupled to Alexa-568 fluorescent dye (conjugate, UniProt P11672 21-200, looked up, Alexa-568 dye, NGAL coupled to Alexa-568 fluorescent dye) Neutrophil …: QDSTQNLIPAPSLLTVPLQPDFRSDQFRGRWYVVGLAGNAVQKKTEGSFTMYSTIYELQENNSYNVTSILVRDQDQGCRYWIRTFVPSSRAGQFTLGNMHRYPQVQSYNVQVATTDYNQFAMVFFRKTSENKQYFKITLYGRTKELSPELKERFTRFAKSLGLKDDNIIFSVPTDQCIDN",localization of fluorescent NGAL in kidney,[3]; by one hour after injection,localized to large vesicles in the subapical domain of the cortical proximal tubule
same,NGAL vesicles also containing dextran (lysosomes),"[3]; one hour after injecting, fluorescein-dextran the day before",33%
"apo-NGAL:Sid:Fe: BL-21-cloned NGAL reconstituted with iron-saturated enterochelin (protein, UniProt P11672 21-200, looked up, iron-saturated enterochelin, BL-21-cloned NGAL reconstituted with iron-saturated enterochelin) Neutrophil …: QDSTQNLIPAPSLLTVPLQPDFRSDQFRGRWYVVGLAGNAVQKKTEGSFTMYSTIYELQENNSYNVTSILVRDQDQGCRYWIRTFVPSSRAGQFTLGNMHRYPQVQSYNVQVATTDYNQFAMVFFRKTSENKQYFKITLYGRTKELSPELKERFTRFAKSLGLKDDNIIFSVPTDQCIDN",retention of ^55Fe,[4],not
same,"protection against ATN (creatinine, FIG. 17A)",[2],protective effect
same,"protection against ATN (creatinine, FIG. 17A)",[2]; listed as apo-Ngal:Sid:Fe,enhanced the protection of the kidney and blunted the rise in serum creatinine
"[^125I]-NGAL: NGAL labelled with ^125I using Iodobeads (protein, UniProt P11672 21-200, looked up, 125I label, NGAL labelled with ^125I using Iodobeads) Neutrophil …: QDSTQNLIPAPSLLTVPLQPDFRSDQFRGRWYVVGLAGNAVQKKTEGSFTMYSTIYELQENNSYNVTSILVRDQDQGCRYWIRTFVPSSRAGQFTLGNMHRYPQVQSYNVQVATTDYNQFAMVFFRKTSENKQYFKITLYGRTKELSPELKERFTRFAKSLGLKDDNIIFSVPTDQCIDN","TCA precipitable fraction, kidney-localized protein",[3]; kidney,70%
same,kidney versus liver content per mg protein,[3]; one hour time-point,13 fold
same,TCA precipitable fraction,[3]; plasma,35%
same,TCA precipitable fraction,[3]; urine,20%
"human NGAL: human NGAL of previously reported clearance data (protein, UniProt P80188 21-198, looked up) Neutrophil …: QDSTSDLIPAPPLSKVPLQQNFQDNQFQGKWYVVGLAGNAILREDKDPQKMYATIYELKEDKSYNVTSVLFRKKKCDYWIRTFVPGCQPGEFTLGNIKSYPGLTSYLVRVVSTNYNQHAMVFFKKVSQNREYFKITLYGRTKELTSELKENFIRFSKSLGLPENHIVFPVPIDQCIDG",kidney versus liver level per mg protein,[5],12 fold
same,t1/2 of clearance from the circulation,[5],10 min
"apo-NGAL:Sid: BL-21-cloned NGAL reconstituted with iron-free enterochelin (protein, UniProt P80188 21-198, looked up, complexed with iron-free enterochelin, BL-21-cloned NGAL reconstituted with iron-free enterochelin) Neutrophil …: QDSTSDLIPAPPLSKVPLQQNFQDNQFQGKWYVVGLAGNAILREDKDPQKMYATIYELKEDKSYNVTSVLFRKKKCDYWIRTFVPGCQPGEFTLGNIKSYPGLTSYLVRVVSTNYNQHAMVFFKKVSQNREYFKITLYGRTKELTSELKENFIRFSKSLGLPENHIVFPVPIDQCIDG",retention of ^55Fe,[4],retained
same,"protection against ATN (creatinine, FIG. 17A)",[2],protective effect
same,"protection against ATN (creatinine, FIG. 17A)",[2]; listed as apo-Ngal:Sid,enhanced the protection of the kidney and blunted the rise in serum creatinine
